Several values for one entry are separate records, joined by “and”; a condition that tells them apart may be missing. Equal values may be shown once.
B2: His6-BakΔTM (recombinant His-tagged Bak lacking the transmembrane domain, aa 1–186) (domain or fragment, UniProt Q16611 1-186, looked up)
chain: MASGQGPGPPRQECGEPALPSASEEQVAQDTEEVFRSYVFYRHQQEQEAEGVAAPADPEMVTLPLQPSSTMGQVGRQLAIIGDDINRRYDSEFQTMLQHLQPTAENAYEYFTKIATSLFESGINWGRVVALLGFGYRLALHVYQHGLTGFLGQVTRFVVDFMLHHCIARWIAQRGGWVAALNLGNG

Tests used:
[1] = target: B2; assay: SPR
GST-Casp8p41 = GST-Casp8p41 (UniProt Q14790 1-355); assay: SPR
GST-Casp8p41 V150A/L157A = GST-Casp8p41 V150A/L157A (UniProt Q14790 1-355, V150A | L157A); assay: SPR
GST-Casp8p41 V150E/L157K = GST-Casp8p41 V150E/L157K (UniProt Q14790 1-355, V150E | L157K); assay: SPR
cross-linking = target: the molecule itself; assay: cross-linking

B1: GST–procaspase 8 (full-length procaspase 8 fused to GST) (natural protein, UniProt Q14790 1-479, looked up)
chain: MDFSRNLYDIGEQLDSEDLASLKFLSLDYIPQRKQEPIKDALMLFQRLQEKRMLEESNLSFLKELLFRINRLDLLITYLNTRKEEMERELQTPGRAQISAYRVMLYQISEEVSRSELRSFKFLLQEEISKCKLDDDMNLLDIFIEMEKRVILGEGKLDILKRVCAQINKSLLKIINDYEEFSKERSSSLEGSPDEFSNGEELCGVMTISDSPREQDSESQTLDKVYQMKSKPRGYCLIINNHNFAKAREKVPKLHSIRDRNGTHLDAGALTTTFEELHFEIKPHDDCTVEQIYEILKIYQLMDHSNMDCFICCILSHGDKGIIYGTDGQEAPIYELTSQFTGLKCPSLAGKPKVFFIQACQGDNYQKGIPVETDSEEQPYLEMDLSSPQTRYIPDEADFLLGMATVNNCVSYRNPAEGTWYIQSLCQSLRERCPRGDDILTILTEVNYEVSNKDDKKNMGKQMPQPTFTLRKKLVFPSD
With B1 the “fold less tight binding than GST-Casp8p41” value [1] was 100 fold.

RPEIWIAQELRRIGDEFNAYYARRVF [Bim BH3 peptide]: binds [1].

B2 was tested, and the Kd (GST-Casp8p41) was 16 nM and 19 nM, the Kd (GST-Casp8p41 V150A/L157A) was 22 nM and the Kd (GST-Casp8p41 V150E/L157K) was 400 nM. The “stoichiometry N” value (cross-linking) was 2.

Reference: PMC4178959 (The Journal of Cell Biology, 2014)
